Data reported in publication PMC10728891.

Key:
[1] = target: human insulin (human) (UniProt P01308); assay: AUC; sedimentation velocity, 300 μM insulin, […] m-cresol, […] ZnCl2, 25 mM tris buffer pH 8.0, interference optics
[2] = target: human insulin (human) (UniProt P01308); assay: circular dichroism, dissociation kinetics after dilution; 600 μM insulin, 250 μM ZnCl2, 25 mM m-cresol, 25 mM tris pH 8 (R6 hexamer), diluted 150-fold into 25 mM tris pH 8.0; ellipticity at 222 nm over 120 s at 25 °C; monoexponential fit; hexamer to monomers

stoichiometry N [1]: 6
t1/2 of hexamer dissociation [2]: 18.4 s
Substance: human insulin (from UniProt P01308 25-54; P01308 90-110) (natural protein)
